First the molecules themselves.
B1: Piezo1-GST fusion protein (mouse Piezo1) [mouse] / Flag-tagged SERCA2 (SERCA2b) [not stated] (parent complex)
chain 1: MEPHVLGAGLYWLLLPCTLLAASLLRFNALSLVYLLFLLLLPWLPGPSRHSIPGHTGRLLRALLCLSLLFLVAHLAFQICLHTVPHLDQFLGQNGSLWVKVSQHIGVTRLDLKDIFNTTRLVAPDLGVLLASSLCLGLCGRLTRKAGQSRRTQELQDDDDDDDDDDEDIDAAPAVGLKGAPALATKRRLWLASRFRVTAHWLLMTSGRTLVIVLLALAGIAHPSAFSSIYLVVFLAICTWWSCHFPLSPLGFNTLCVMVSCFGAGHLICLYCYQTPFIQDMLPPGNIWARLFGLKNFVDLPNYSSPNALVLNTKHAWPIYVSPGILLLLYYTATSLLKLHKSCPSELRKETPREDEEHELELDHLEPEPQARDATQGEMPMTTEPDLDNCTVHVLTSQSPVRQRPVRPRLAELKEMSPLHGLGHLIMDQSYVCALIAMMVWSIMYHSWLTFVLLLWACLIWTVRSRHQLAMLCSPCILLYGLTLCCLRYVWAMELPELPTTLGPVSLHQLGLEHTRYPCLDLGAMLLYLLTFWLLLRQFVKEKLLKKQKVPAALLEVTVADTEPTQTQTLLRSLGELVTGIYVKYWIYVCAGMFIVVSFAGRLVVYKIVYMFLFLLCLTLFQVYYTLWRKLLRVFWWLVVAYTMLVLIAVYTFQFQDFPTYWRNLTGFTDEQLGDLGLEQFSVSELFSSILIPGFFLLACILQLHYFHRPFMQLTDLEHVPPPGTRHPRWAHRQDAVSEAPLLEHQEEEEVFREDGQSMDGPHQATQVPEGTASKWGLVADRLLDLAASFSAVLTRIQVFVRRLLELHVFKLVALYTVWVALKEVSVMNLLLVVLWAFALPYPRFRPMASCLSTVWTCIIIVCKMLYQLKIVNPHEYSSNCTEPFPNNTNLQPLEINQSLLYRGPVDPANWFGVRKGYPNLGYIQNHLQILLLLVFEAVVYRRQEHYRRQHQQAPLPAQAVCADGTRQRLDQDLLSCLKYFINFFFYKFGLEICFLMAVNVIGQRMNFMVILHGCWLVAILTRRRREAIARLWPNYCLFLTLFLLYQYLLCLGMPPALCIDYPWRWSKAIPMNSALIKWLYLPDFFRAPNSTNLISDFLLLLCASQQWQVFSAERTEEWQRMAGINTDHLEPLRGEPNPIPNFIHCRSYLDMLKVAVFRYLFWLVLVVVFVAGATRISIFGLGYLLACFYLLLFGTTLLQKDTRAQLVLWDCLILYNVTVIISKNMLSLLSCVFVEQMQSNFCWVIQLFSLVCTVKGYYDPKEMMTRDRDCLLPVEEAGIIWDSICFFFLLLQRRIFLSHYFLHVSADLKATALQASRGFALYNAANLKSINFHRQIEEKSLAQLKRQMKRIRAKQEKYRQSQASRGQLQSKDPQDPSQEPGPDSPGGSSPPRRQWWRPWLDHATVIHSGDYFLFESDSEEEEEALPEDPRPAAQSAFQMAYQAWVTNAQTVLRQRRERARQERAEQLASGGDLNPDVEPVDVPEDEMAGRSHMMQRVLSTMQFLWVLGQATVDGLTRWLRAFTKHHRTMSDVLCAERYLLTQELLRVGEVRRGVLDQLYVGEDEATLSGPVETRDGPSTASSGLGAEEPLSSMTDDTSSPLSTGYNTRSGSEEIVTDAGDLQAGTSLHGSQELLANARTRMRTASELLLDRRLHIPELEEAERFEAQQGRTLRLLRAGYQCVAAHSELLCYFIIILNHMVTASAASLVLPVLVFLWAMLTIPRPSKRFWMTAIVFTEVMVVTKYLFQFGFFPWNSYVVLRRYENKPYFPPRILGLEKTDSYIKYDLVQLMALFFHRSQLLCYGLWDHEEDRYPKDHCRSSVKDREAKEEPEAKLESQSETGTGHPKEPVLAGTPRDHIQGKGSIRSKDVIQDPPEDLKPRHTRHISIRFRRRKETPGPKGTAVMETEHEEGEGKETTERKRPRHTQEKSKFRERMKAAGRRLQSFCVSLAQSFYQPLQRFFHDILHTKYRAATDVYALMFLADIVDIIIIIFGFWAFGKHSAATDIASSLSDDQVPQAFLFMLLVQFGTMVIDRALYLRKTVLGKLAFQVVLVVAIHIWMFFILPAVTERMFSQNAVAQLWYFVKCIYFALSAYQIRCGYPTRILGNFLTKKYNHLNLFLFQGFRLVPFLVELRAVMDWVWTDTTLSLSNWMCVEDIYANIFIIKCSRETEKKYPQPKGQKKKKIVKYGMGGLIILFLIAIIWFPLLFMSLIRSVVGVVNQPIDVTVTLKLGGYEPLFTMSAQQPSIVPFTPQAYEELSQQFDPYPLAMQFISQYSPEDIVTAQIEGSSGALWRISPPSRAQMKQELYNGTADITLRFTWNFQRDLAKGGTVEYTNEKHTLELAPNSTARRQLAQLLEGRPDQSVVIPHLFPKYIRAPNGPEANPVKQLQPDEEEDYLGVRIQLRREQVGTGASGEQAGTKASDFLEWWVIELQDCKADCNLLPMVIFSDKVSPPSLGFLAGYGIVGLYVSIVLVVGKFVRGFFSEISHSIMFEELPCVDRILKLCQDIFLVRETRELELEEELYAKLIFLYRSPETMIKWTRERE
chain 2: MENAHTKTVEEVLGHFGVNESTGLSLEQVKKLKERWGSNELPAEEGKTLLELVIEQFEDLLVRILLLAACISFVLAWFEEGEETITAFVEPFVILLILVANAIVGVWQERNAENAIEALKEYEPEMGKVYRQDRKSVQRIKAKDIVPGDIVEIAVGDKVPADIRLTSIKSTTLRVDQSILTGESVSVIKHTDPVPDPRAVNQDKKNMLFSGTNIAAGKAMGVVVATGVNTEIGKIRDEMVATEQERTPLQQKLDEFGEQLSKVISLICIAVWIINIGHFNDPVHGGSWIRGAIYYFKIAVALAVAAIPEGLPAVITTCLALGTRRMAKKNAIVRSLPSVETLGCTSVICSDKTGTLTTNQMSVCRMFILDRVEGDTCSLNEFTITGSTYAPIGEVHKDDKPVNCHQYDGLVELATICALCNDSALDYNEAKGVYEKVGEATETALTCLVEKMNVFDTELKGLSKIERANACNSVIKQLMKKEFTLEFSRDRKSMSVYCTPNKPSRTSMSKMFVKGAPEGVIDRCTHIRVGSTKVPMTSGVKQKIMSVIREWGSGSDTLRCLALATHDNPLRREEMHLEDSANFIKYETNLTFVGCVGMLDPPRIEVASSVKLCRQAGIRVIMITGDNKGTAVAICRRIGIFGQDEDVTSKAFTGREFDELNPSAQRDACLNARCFARVEPSHKSKIVEFLQSFDEITAMTGDGVNDAPALKKAEIGIAMGSGTAVAKTASEMVLADDNFSTIVAAVEEGRAIYNNMKQFIRYLISSNVGEVVCIFLTAALGFPEALIPVQLLWVNLVTDGLPATALGFNPPDLDIMNKPPRNPKEPLISGWLFFRYLAIGCYVGAATVGAAAWWFIAADGGPRVSFYQLSHFLQCKEDNPDFEGVDCAIFESPYPMTMALSVLVTIEMCNALNSLSENQSLLRMPPWENIWLVGSICLSMSLHFLILYVEPLPLIFQITPLNVTQWLMVLKISLPVILMDETLKFVARNYLEPGKECVQPATKSCSFSACTDGISWPFVLLIMPLVIWVYSTDTNFSDMFWS

The test covers variants of B1. Briefly: GST pull-down, western blot quantification; co-expressed Flag-SERCA2; repeated 3 times; mean ± s.e.m.; parent: 1; read off a plot.
With chain 1 K2182A, chain 1 K2183A, chain 1 K2184A, chain 1 K2185A, the ratio to parent is about 0.3.
Next, chain 1 E2172A, chain 1 K2173A, chain 1 K2174A, chain 1 Y2175A, chain 1 P2176A, chain 1 Q2177A, chain 1 P2178A, chain 1 K2179A, chain 1 G2180A, chain 1 Q2181A: about 0.4.

The values above are taken from paper PMC5702604 (2017).
